According to a protein production outcome set (Wang et al. 2014):

Experiment: label from the status in PepcDB records

For “MDSGFTLRAPRNDKRRNPMPAILGTGEHRYRVVENFAKLPDGWQLTDVAAVAVDSLDRVYVFNRGAHPMVVLDREGNFLRSWGEGLFSRAHGLHIDADDNLYCTDDGDHTVRKCTSDGKVLLTIGIPAKPAPFMSGEPFHRCTHTALSPKGEIYVSDGYGNARVHKFTPDGKLIKSWGEPGTDPGQFNIVHNIATDSDGWVYVADRENHRVQVFNGEGKYETQWNNLHRPCALCCCGGRSPTFVIGELGPGLDINRNVPNLGPRLSIVDAKGNRIARLGGEEGPGVASGKFLAPHGIALDSKGDIYVGEVGVTNWATSFPDQEMPAVVRATRCLQKLERVRELEHHHHHH”, which protein production is on record?
The protein production was “failed”.

Which protein production does the source give for “MDSGPLWDANPTPRGTLSAPNATTPWLGRDEELAKVEIGVLATVLVLATGGNLAVLLTLGQLGRKRSRMHLFVLHLALTDLAVALFQVLPQLLWDITYRFQGPDLLCRAVKYLQVLSMFASTYMLLAMTLDRYLAVCHPLRSLQQPGQSTYLLIAAPWLLAAIFSLPQVFIFSLREVIQGSGVLDCWADFGFPWGPRAYLTWTTLAIFVLPVTMLTACYSLICHEICKNLKVKTQAWRVGGGGWRTWDRPSPSTLAATTRGLPSRVSSINTISRAKIRTVKMTFVIVLAYIACWAPFFSVQMWSVWDKNAPDEDSTNVAFTISMLLGNLNSCCNPWIYMGFNSHLLPRPLRHLACCGGPQPRMRRRLSDGSLSSRHTTLLTRSSCPATLSLSLSLTLSGRPRPEESPRDLELADGEGTAETIIF” here?
The protein production was “failed”.

Which protein production does the source give for “MDSKQQRIGVIGTGAIGGFYGLMLAHAGHDVHFLLRSEFEAVNRAGLSLNSAVHGFRRLAPVQAYHSAQDMPPCDWLLVGAKTTGNDELAPLIRAAAAPGAKVLLLQNGLGVEERLRPLLPESLHLLGGLCFICVHRGEPGVIEHQAYGGVNLGYHSGPADERRRREIVEEGAALFRESGLESTAMPDLEQARWQKLVWNIPYNGLSVLLKSSTAPLMANADSRSLIEAIMEEVIGAAGACGFILPEGYADQLLAATERMPDYRPSMYHDFAHGRPLELAAIYAAPLARAAAAGYR” here?
The protein production was “failed”.

For “MDSLRFNLQQSPFQLKPRILRPRITNISNRIDETDPRPSSSAGRIQRLVLNNEGRTKLNADPDREFYSYPRFVNHVDDSFISSLTELYRNRLRPGSTVLDLMSSWVSHLPEEVKYEKVVGHGLNAQELARNPRLDYFFVKDLNEDQKFEFEDKYFDAVLCSVGVQYLQQPEKVFAEVYRVLKPGGVLIVSFSNRMFYEKAIRVWRDGTEYSRIQLVVQYFQSIEGFTQPEIIRQQPGAQISVLTRLMGFIGLASTPDPFNAVIAYKNFKPIYE”, which protein production is on record?
Its protein production is “failed”.

With “MDSQELKTLINYYCQERYFHHVLLVASEGIKRYGSDPVFRFYHAYGTLMEGKTQEALREFEAIKNKQDVSLCSLLALIYAHKMSPNPDREAILESDARVKEQRKGAGEKALYHAGLFLWHIGRHDKAREYIDRMIKISDGSKQGHVLKAWLDITRGKEPYTKKALKYFEEGLQDGNDTFALLGKAQCLEMRQNYSGALETMNQIIVNFPSFLPAFVKKMKLQLALQNWDQTVETAQRLLLQDSQNVEALRMQALYYVCREGDIEKASTKLENLGNALDAMEPQNAQLFYNITLAFSRTCGRSQLILQKIQTLLERAFSLNPQQSEFATELGYQMILQGRVKEALKWYKTAMTLDETSVSALVGFIQCQLIEGQLQDADQQLEFLNEIQQSIGKSAELIYLHAVLAMKKNKRQEEVINLLNDVLDTHFSQLEGLPLGIQYFEKLNPDFLLEIVMEYLSFCPMQVSNYGTYFQGCVYLMFYERT” as the sequence, how does the protein production read?
Its protein production is “failed”.

With “MDSQTGVTRRRLLLGLGSGLGLLGGGGAYVYWSLQGDSGEYTAPNSQPVVTTRGLLDSAEEPAAETEGAWSFDDASEVFLFVHGFSTDAETARDNAYTAQLALGEYTSAPVVAYSWDSDVEWEQAKDNAVANRTLLAQWLMEWAETDGRPVHVLAHSLGARVTGETLRVLAEQGATDVLASVSLLGGAIPYDSVVQGGRYGDAIEAVDAPVSNFYSQNDKVLSWVYRASDRTHAVGHAGTRDAGPLPDGYQDVNVTDLVADHYSYFEPGEGCLARVVAEIE” as the sequence, how does the protein production read?
The protein production was “failed”.

With “MDSRLAMFAPCPRGLEQILADELLALGAGDIAPADGGVAFAGDARLMMAVNLHSRTASRVLLRLAHGGYHAEQDIYRLAMSVDWPRWFEVSRTIKLKADGIAARVKSLDYIGLTVKDAICDRFRQAHLGRPSVDTRHPDVRVNVFLTADEATIYLDTSGEPLFKRGWREETGEAPLRENLAAGILLLAGYDGSQPLLDPMCGSGTFLVEAADIALNRAPGRARRFGFEALSSFDSAAWEKLQQDARKAEQPASSLAIRGSDRSQAMVNIARANLERAGLAELVEVSAADVTASRPHAEHGLIVSNPPYGVRLEEQDQLAAWYPELGDWLKAHFAGWTACLFSGDLRLGKLIRLAPKRRTPLFNGSLQCRLFVINMVEGSARKQKDGDEAEIETGDEQ” as the sequence, how does the protein production read?
Its protein production is “failed”.

Which protein production does the source give for “MDSSREANRKHDAEEKREDEKTSLMEVNLMVVLLSQLSTKKEDENGLEKERRDHVAHEARESRARANKRFMKDTKLMEKRTHVLQPMAKEFRHYRKM” here?
The protein production was “failed”.

With “MDTCGVGYVALGEAGPVGNMTVVDSPGQEVLNQLDVKTSSEMTSAEASVEMSLPTPLPGFEDSPDQRRLPPEQESLSRLEQPDLSSEMSKVSKPRASKPGRKRGGRTRKGPKRPQQPNPPSAPLVPGLLDQSNPLSTPMPKKRGRKSKAELLLLKLSKDLDRPESQSPKRPPEDFETPSGERPRRRAAQVALLYLQELAEELSTALPAPVSCPEGPKVSSPTKPKKIRQPAACPGGEEVDGAPRDEDFFLQVEAEDVEESEGPSESSSEPEPVVPRSTPRGSTSGKQKPHCRGMAPNGLPNHIMAPVWKCLHLTKDFREQKHSYWEFAEWIPLAWKWHLLSELEAAPYLPQEEKSPLFSVQREGLPEDGTLYRINRFSSITAHPERWDVSFFTGGPLWALDWCPVPEGAGASQYVALFSSPDMNETHPLSQLHSGPGLLQLWGLGTLQQESCPGNRAHFVYGIACDNGCIWDLKFCPSGAWELPGTPRKAPLLPRLGLLALACSDGKVLLFSLPHPEALLAQQPPDAVKPAIYKVQCVATLQVGSMQATDPSECGQCLSLAWMPTRPHQHLAAGYYNGMVVFWNLPTNSPLQRIRLSDGSLKLYPFQCFLAHDQAVRTLQWCKANSHFLVSAGSDRKIKFWDLRRPYEPINSIKRFLSTELAWLLPYNGVTVAQDNCYASYGLCGIHYIDAGYLGFKAYFTAPRKGTVWSLSGSDWLGTIAAGDISGELIAAILPDMALNPINVKRPVERRFPIYKADLIPYQDSPEGPDHSSASSGVPNPPKARTYTETVNHHYLLFQDTDLGSFHDLLRREPMLRMQEGEGHSQLCLDRLQLEAIHKVRFSPNLDSYGWLVSGGQSGLVRIHFVRGLASPLGHRMQLESRAHFNAMFQPSSPTRRPGFSPTSHRLLPTP” as the sequence, how does the protein production read?
The protein production was “failed”.

Which protein production does the source give for “MDTDNNLTFVDFYYRWLEITKLDIINDTSYKRYITAIKAFKDCFGNKLISDIDSLSYQKFLKDYGRGHFLNNGQLRPRTSNTVSKMNNCLKQAFESAVEQGYIKKNLEHHHHHH” here?
The protein production was “failed”.

Which protein production does the source give for “MDTEMLIDKYQLNDSEAAVLRFMDKNRDCLKSLGIREVAKASYVSTTAIINMAKKIGYSGYSELVFAYGNKHSSISFPENFSNEEKDEFIRLLSRYREKRIMVLGSGFSQNIANHFSEMLNLYGFRATANSHLEFLRENVEKDVLIFIVSNSGDTLRLAELVKLAKNHHIDLIAFVGEKKSKIGQLATLTISTETYNPQVVSEYQPNLFFGTALNQFELLLSEALKSIFI” here?
Its protein production is “not failed”.

For “MDTPNKDDSIIRFSVSLQQNLLDELDNRIIKNGYSSRSELVRDMIREKLVEDNWAEDNPNDESKIAVLVVIYDHHQRELNQRMIDIQHASGTHVLCTTHIHMDEHNCLETIILQGNSFEIQRLQLEIGGLRGVKFAKLTKASSFEYNE”, which protein production is on record?
Its protein production is “failed”.

For “MDTQSLVPLSTLKQGEKAYVVDLELNGLLRRRVLDLGIVPGTSLQCVGTAPAGDPIAYLVRGTVIALRSEDARSIRVNSALV”, which protein production is on record?
The protein production was “failed”.

Which protein production does the source give for “MDTSNATSVVNVSASSSTSTIYDLGNMSKDEVVKLFEELGVFQAAILMFSYMYQAQSNLSIAKFADMNEASKASTTAQKMANLVDAKIADVQSSTDKNAKAKLPQDVIDYINDPRNDISVTGIRDLSGDLSAGDLQTVKAAISAKANNLTTVVNNSQLEIQQMSNTLNLLTSARSDVQSLQYRTISAISLGK” here?
Its protein production is “failed”.

For “MDTVDLRHLDENLHHARTQFEVWARGRLSNLEEVQRTWQETTARVSRETETLVQRRTQFEAAAARLQERLEAEREELDALERGIAQLEARAAALPVRQQELEQEIAERRQEFERRRALLNACEEARRTRLLHLQKALVWYRDRLGLRFQRVGAASATEAGRVDGKVRVIFRHIDSRAPDREFAFTVYVDEDADLFRVEDCVPDIDVMKPTAGAANVRLAQMVETLNRTNDFGAFVAQMRRRFKAWVQMESTDQLAGRQA”, which protein production is on record?
Its protein production is “failed”.

For “MDTWKVGPVELKSRLILGSGKYEDFGVMREAIAAAKAEVVTVSVRRVELKAPGHVGLLEALEGVRLLPNTAGARTAEEAVRLARLGRLLTGERWVKLEVIPDPTYLLPDPLETLKAAERLIEEDFLVLPYMGPDLVLAKRLAALGTATVMPLAAPIGSGWGVRTRALLELFAREKASLPPVVVDAGLGLPSHAAEVMELGLDAVLVNTAIAEAQDPPAMAEAFRLAVEAGRKAYLAGPMRPREAASPSSPVEGVPFTPTGPRPGRGPQ”, which protein production is on record?
The protein production was “not failed”.

With “MDTYMIDAELEHYLGERLSSSSRQALCRLHVRACARFHGAELEEYRRRLRAHARAYARLGRMLQSPFRHMETALFLSSFTLFVAGIIMVVNGDLSALVACGTAAGLVGMIECARKLAGHWHRYGVMEAVYRELEEQLANG” as the sequence, how does the protein production read?
The protein production was “failed”.

With “MDVAGEKQQRKGEAIARIEAEKNAYTVAQLADEYFERMIAGRWKHPNIVRSRIEKDIKPAIGSLKVEDVKPRHIDDVLKAVMKRGAPSIANDTLRWLKRMFNYAIKRHIIEYNPAAAFLEHHHHHH” as the sequence, how does the protein production read?
The protein production was “failed”.

With “MDVEPGKFYKGVVTRIEKYGAFINLNEQVRGLLRPRDMISLRLENLNVGDEIIVQAIDVRPEKREIDFKYIPLTTYDLVKYEKEVPLSQIKDISQNLEHHHHHH” as the sequence, how does the protein production read?
Its protein production is “not failed”.

For “MDVKTAAALHRLRLISLPEAISFPILLVCSVLKRTTEFDAVFPMGLIHGLLFTFYVIFWADAWNRAKWSKKKAAGYFLLAIPPFGGLFAERKLKREAEDAVIASRARREGTVNA”, which protein production is on record?
Its protein production is “failed”.

For “MDVTIERVNDFDGYNWLPLLAKSSQEGFQLVERMLRNRREESFQEDGEAMFVALSTTNQVLACGGYMKQSGQARTGRIRHVYVLPEARSHGIGTALLEKIMSEAFLTYDRLVLYSEQADPFYQGLGFQLVSGEKITHTLDKTAFADSNR”, which protein production is on record?
The protein production was “not failed”.

With “MDVVDSLLVNGSNITPPCELGLENETLFCLDQPRPSKEWQPAVQILLYSLIFLLSVLGNTLVITVLIRNKRMRTVTNIFLLSLAVSDLMLCLFCMPFNLIPNLLKDFIFGSAVCKTTTYFMGTSVSVSTFNLVAISLERYGAICKPLQSRVWQTKSHALKVIAATWCLSFTIMTPYPIYSNLVPFTKNNNQTANMCRFLLPNDVMQQSWHTFLLLILFLIPGIVMMVAYGLISLELYQGIKFEASQKKSAKERKPSTTSSGKYEDSDGCYLQKTRPPRKLELRQLSTGSSSRANRIRSNSSAANLMAKKRVIRMLIVIVVLFFLCWMPIFSANAWRAYDTASAERRLSGTPISFILLLSYTSSCVNPIIYCFMNKRFRLGFMATFPCCPNPGPPGARGEVGEEEEGGTTGASLSRFSYSHMSASVPPQ” as the sequence, how does the protein production read?
Its protein production is “failed”.

With “MDWFSWLSRTNLEASLIYEYGLSFSNNELEYEDIAYFNHEFLQSMGISIAKHRLEILKLARRDRKPSPLTARSIFRVLIAIKKTGKCFSEHVRAWIRREESSRALVVVSRSTSSSGNGRWKSARKKRLVMPSNGNGVKEERLLLTNGTPCRLDSFSNPKVSSGYEDDDNHWGNKDVEEKIKWDSMFQNLKPT” as the sequence, how does the protein production read?
Its protein production is “failed”.
